Source: the supplement of paper PMC7877785
± gives the uncertainty stated by the source.

Assay: self-splicing fitness, log relative to wild type (ln ratio); higher = more splicing; Tetrahymena group I intron in knt gene, E. coli kanamycin selection, DiMSum; sequences stand for … in CUCUCU…GGAGGGAAAAGUUAUCAGGCAUGCACCUGGUAGCUAGUCUUUAAACCAAUAGAUUGCAUCGGUUUAAAAGGCAAGACCGUCAAAUUGCGGGAAAGGGGUCAACAGCCGUUCAGUACCAAGUCUCAGGGGAAACUUUGAGAUGGCCUUGCAAAGGGUAUGGUAAUAAGCUGACGGACAUGGUCCUAACCACGCAGCCAAGUCCUAAGUCAACAGAUCUUCUGUUGAUAUGGAUGCAGUUCACAGACUAAAUGUCGGUCGGGGAAGAUGUAUUCUUCUCAUAAGAUAUAGUCGGACCUCUCCUUAAUGGGAGCUAGCGGAUGAAGUGAUGCAACACUGGAGCCGCUGGGAACUAAUUUGUAUGCGAAAGUAUAUUGAUUAGUUUUGGAGUACUCGUGGUCG
How it was run: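 Library with all eight P1ex-region intron nucleotides randomised, intron inside the knt kanamycin-resistance gene on pET-22b(+), in E. coli BL21(DE3). Cells grew overnight at 37°C or 30°C on LB agar with or without 25 μg/mL kanamycin (plus 100 μg/mL carbenicillin, 50 μM IPTG, 0.2% rhamnose), in six replicate transformations. Pooled colonies were amplicon-sequenced on Illumina HiSeq 2500. DiMSum fitness is the error-weighted combination of wild-type-normalised replicate fold changes, kanamycin versus none.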

Sequence | self-splicing fitness (ln) (30 °C) | self-splicing fitness (ln) (37 °C)
UGGCAGCAAUAUUACGUCUG | -1.31 ± 0.082 | -0.936 ± 0.11
AACAAGCAAUAUUACGAUGC | -2.67 ± 0.14 | -0.922 ± 0.11
CGUGAGCAAUAUUACGGCUU | -3.31 ± 0.18 | -3.81 ± 0.33
CUUAAGCAAUAUUACGAAAA | -1.9 ± 0.26 | –
AAAUAGCAAUAUUACGUAUG | -2.64 ± 0.12 | -2.08 ± 0.13
GUCCAGCAAUAUUACGGUAG | -2.08 ± 0.083 | -1.61 ± 0.096
AAAGAGCAAUAUUACGACGG | -3.27 ± 0.29 | -2.83 ± 0.43
GCUCAGCAAUAUUACGCAGC | -2.98 ± 0.35 | -2.67 ± 0.44
UCCAAGCAAUAUUACGUUAA | -2.37 ± 0.12 | -0.463 ± 0.1
CUGGAGCAAUAUUACGAGCU | – | -1.66 ± 0.46
CAGAAGCAAUAUUACGGUAG | -0.817 ± 0.065 | -0.323 ± 0.08
UACAAGCAAUAUUACGCGAA | -2.37 ± 0.099 | -0.769 ± 0.095
AUACAGCAAUAUUACGGGAA | -2.72 ± 0.17 | -1.51 ± 0.13
UUGCAGCAAUAUUACGAUUG | -1.62 ± 0.32 | -0.337 ± 0.21
GCAUAGCAAUAUUACGGCGU | -0.347 ± 0.091 | 0.0454 ± 0.089
ACAUAGCAAUAUUACGCCUC | – | -1.29 ± 0.24
AAGUAGCAAUAUUACGUCCA | -0.464 ± 0.18 | -0.521 ± 0.17
GAAGAGCAAUAUUACGGUAA | -2.16 ± 0.29 | -1.01 ± 0.24
ACUGAGCAAUAUUACGGACU | -1.08 ± 0.077 | -0.672 ± 0.093
CGUUAGCAAUAUUACGCAUU | -4.27 ± 0.25 | -1.29 ± 0.12
AUGUAGCAAUAUUACGCUUU | -3.23 ± 0.15 | -1.29 ± 0.11
CGACAGCAAUAUUACGACGC | -2.21 ± 0.11 | -0.587 ± 0.12
GUCGAGCAAUAUUACGAUUU | -0.559 ± 0.2 | -0.273 ± 0.19
GGGCAGCAAUAUUACGCAGA | -1.43 ± 0.095 | -0.514 ± 0.1
CACUAGCAAUAUUACGUUGU | -4.22 ± 0.14 | -2.08 ± 0.12
CCUGAGCAAUAUUACGUCAC | – | -1.54 ± 0.31

Sequence | self-splicing fitness (ln) (30 °C) | self-splicing fitness (ln) (37 °C)
CGACAGCAAUAUUACGAACA | -2.16 ± 0.14 | -0.404 ± 0.11
GCCGAGCAAUAUUACGGGCU | -3.27 ± 0.23 | -2.43 ± 0.27
UACAAGCAAUAUUACGAUUG | -3.18 ± 0.17 | -1.8 ± 0.17
GAUAAGCAAUAUUACGCAAG | -2.51 ± 0.25 | -1.34 ± 0.21
GCUGAGCAAUAUUACGUACU | -1.76 ± 0.23 | -1.07 ± 0.27
CAUCAGCAAUAUUACGAUAU | -1.76 ± 0.073 | -0.599 ± 0.085
AGUAAGCAAUAUUACGGAUG | -3.1 ± 0.25 | -2.2 ± 0.26
CCUGAGCAAUAUUACGUGUC | -4.13 ± 0.21 | -2 ± 0.13
GGCGAGCAAUAUUACGCAUC | -2.15 ± 0.15 | -1.05 ± 0.14
UAGCAGCAAUAUUACGACUC | -0.27 ± 0.091 | 0.54 ± 0.12
UUUGAGCAAUAUUACGUCAA | -1.66 ± 0.21 | -2.66 ± 0.37
GUUUAGCAAUAUUACGCACG | -2.48 ± 0.44 | –
UAAUAGCAAUAUUACGUUUU | -4.25 ± 0.29 | -2.73 ± 0.17
CAGGAGCAAUAUUACGUCUU | -2.33 ± 0.095 | -2.16 ± 0.11
CAGAAGCAAUAUUACGAGGU | -4.11 ± 0.36 | -3 ± 0.32
UGAAAGCAAUAUUACGGCCU | -0.0439 ± 0.16 | 0.493 ± 0.18
GUCUAGCAAUAUUACGCUGU | -0.966 ± 0.09 | -0.224 ± 0.094
AUUUAGCAAUAUUACGCCCC | -0.747 ± 0.37 | –
CCAAAGCAAUAUUACGCCAC | -3.59 ± 0.3 | -2.01 ± 0.47
CAUGAGCAAUAUUACGUCCG | -0.682 ± 0.079 | -0.331 ± 0.1
AUUUAGCAAUAUUACGCUUG | -0.566 ± 0.088 | -0.134 ± 0.12
GAUAAGCAAUAUUACGGGAG | -4.18 ± 0.25 | -2.34 ± 0.15
UGUUAGCAAUAUUACGUACG | -0.624 ± 0.17 | 0.229 ± 0.22
CGACAGCAAUAUUACGCCCC | -1.19 ± 0.16 | 0.564 ± 0.24
CUUAAGCAAUAUUACGAGUA | -3.63 ± 0.24 | -1.94 ± 0.2
GAUCAGCAAUAUUACGUGUC | -2.74 ± 0.11 | -2.19 ± 0.17

Sequence | self-splicing fitness (ln) (30 °C) | self-splicing fitness (ln) (37 °C)
CCCCAGCAAUAUUACGUGUU | -3.79 ± 0.12 | -3.3 ± 0.17
AACAAGCAAUAUUACGAGGC | -3.07 ± 0.15 | -3.27 ± 0.28
CUAAAGCAAUAUUACGUGAA | -3.29 ± 0.23 | -3.36 ± 0.32
AGAUAGCAAUAUUACGAAUG | -2.62 ± 0.13 | -1.32 ± 0.11
AAACAGCAAUAUUACGUCAC | -4.1 ± 0.23 | -2.59 ± 0.2
GCGAAGCAAUAUUACGUAAU | -1.22 ± 0.097 | -1.07 ± 0.11
UUAAAGCAAUAUUACGGUCG | 0.224 ± 0.082 | 0.441 ± 0.095
AGACAGCAAUAUUACGUCUA | -1.31 ± 0.097 | -0.608 ± 0.099
CUGUAGCAAUAUUACGGGGG | -4.4 ± 0.37 | -2.68 ± 0.31
UGUCAGCAAUAUUACGUGGU | -4.15 ± 0.18 | -1.96 ± 0.11
UUAGAGCAAUAUUACGCUAU | -2.27 ± 0.23 | -1.75 ± 0.26
AGGUAGCAAUAUUACGACCU | -3.04 ± 0.031 | -2.42 ± 0.049
AUGAAGCAAUAUUACGCAGG | -0.47 ± 0.12 | -0.916 ± 0.14
GAGUAGCAAUAUUACGGCGU | -0.448 ± 0.17 | 0.221 ± 0.18
UUUAAGCAAUAUUACGUACA | -0.498 ± 0.12 | 0.0487 ± 0.14
GACUAGCAAUAUUACGAAAG | -2.97 ± 0.16 | -1.8 ± 0.2
CUUCAGCAAUAUUACGGCCU | – | -1.66 ± 0.38
CUUCAGCAAUAUUACGUGUC | -3.03 ± 0.13 | -2.3 ± 0.12
CUGUAGCAAUAUUACGGCCU | – | -3.02 ± 0.34
UAGUAGCAAUAUUACGGGUG | -0.96 ± 0.071 | -0.773 ± 0.079
AAGUAGCAAUAUUACGGUGG | -3.62 ± 0.22 | -2.85 ± 0.26
CCCCAGCAAUAUUACGAGGG | -3.83 ± 0.15 | -2.78 ± 0.18
UUGAAGCAAUAUUACGGGUU | -1.66 ± 0.093 | -1.66 ± 0.16
CAACAGCAAUAUUACGAACC | -2.27 ± 0.25 | -1.62 ± 0.22
GUUAAGCAAUAUUACGUAGC | -2.84 ± 0.19 | -1.86 ± 0.26
